Source: PMC8523169

Biological target: full-length MukB (wild type) (E. coli) (UniProt P22523)
Assay: fluorescence correlation spectroscopy (FCS); competition: MatP-Cy3B fixed at 1 nM, MukB at 400 nM; ParC variants at 10-fold, unlabeled MatP at 50-fold, DNA at 2.5-fold molar excess

full-length MukB (wild type) (E. coli), sequence (P22523 whole entry): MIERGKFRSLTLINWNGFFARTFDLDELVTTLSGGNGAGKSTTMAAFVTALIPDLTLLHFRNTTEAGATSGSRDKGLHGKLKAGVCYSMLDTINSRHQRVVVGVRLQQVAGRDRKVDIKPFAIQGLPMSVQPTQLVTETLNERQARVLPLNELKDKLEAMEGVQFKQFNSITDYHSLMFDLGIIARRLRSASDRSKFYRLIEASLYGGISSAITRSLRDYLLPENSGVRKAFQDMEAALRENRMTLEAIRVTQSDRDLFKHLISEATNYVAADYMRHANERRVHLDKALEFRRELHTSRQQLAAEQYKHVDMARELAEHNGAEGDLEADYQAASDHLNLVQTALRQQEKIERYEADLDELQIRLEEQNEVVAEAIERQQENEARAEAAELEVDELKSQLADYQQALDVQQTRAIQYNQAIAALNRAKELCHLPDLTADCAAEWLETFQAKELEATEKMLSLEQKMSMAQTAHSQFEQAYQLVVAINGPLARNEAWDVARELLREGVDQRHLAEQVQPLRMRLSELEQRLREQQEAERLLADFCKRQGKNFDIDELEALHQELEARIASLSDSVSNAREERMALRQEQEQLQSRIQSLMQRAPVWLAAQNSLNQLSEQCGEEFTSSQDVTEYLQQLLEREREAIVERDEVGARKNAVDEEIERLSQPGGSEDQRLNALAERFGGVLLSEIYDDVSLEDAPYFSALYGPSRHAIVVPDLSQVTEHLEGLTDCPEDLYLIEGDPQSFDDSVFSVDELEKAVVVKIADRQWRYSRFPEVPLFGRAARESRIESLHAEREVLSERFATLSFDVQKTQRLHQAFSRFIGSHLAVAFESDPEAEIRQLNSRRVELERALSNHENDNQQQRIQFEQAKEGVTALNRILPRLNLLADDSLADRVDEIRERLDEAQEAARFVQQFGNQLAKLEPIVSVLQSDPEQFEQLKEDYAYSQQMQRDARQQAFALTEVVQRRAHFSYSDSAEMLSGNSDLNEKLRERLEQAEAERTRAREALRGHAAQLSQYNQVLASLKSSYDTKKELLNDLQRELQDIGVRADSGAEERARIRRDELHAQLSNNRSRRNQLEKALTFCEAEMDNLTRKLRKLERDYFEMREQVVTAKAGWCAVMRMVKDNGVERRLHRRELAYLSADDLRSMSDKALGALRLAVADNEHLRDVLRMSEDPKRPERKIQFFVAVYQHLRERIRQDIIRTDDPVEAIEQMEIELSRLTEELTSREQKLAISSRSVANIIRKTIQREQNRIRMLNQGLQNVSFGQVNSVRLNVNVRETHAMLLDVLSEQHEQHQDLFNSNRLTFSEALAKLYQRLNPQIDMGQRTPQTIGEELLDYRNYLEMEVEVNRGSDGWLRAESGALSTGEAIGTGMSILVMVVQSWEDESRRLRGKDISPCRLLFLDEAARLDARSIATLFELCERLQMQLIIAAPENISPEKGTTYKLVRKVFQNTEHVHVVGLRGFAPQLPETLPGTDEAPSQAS
MBP-ParC^CTD (ParC C-terminal domain with N-terminal MBP fusion) (domain or fragment), sequence (P0AFI2 whole entry, the tested form may be a part): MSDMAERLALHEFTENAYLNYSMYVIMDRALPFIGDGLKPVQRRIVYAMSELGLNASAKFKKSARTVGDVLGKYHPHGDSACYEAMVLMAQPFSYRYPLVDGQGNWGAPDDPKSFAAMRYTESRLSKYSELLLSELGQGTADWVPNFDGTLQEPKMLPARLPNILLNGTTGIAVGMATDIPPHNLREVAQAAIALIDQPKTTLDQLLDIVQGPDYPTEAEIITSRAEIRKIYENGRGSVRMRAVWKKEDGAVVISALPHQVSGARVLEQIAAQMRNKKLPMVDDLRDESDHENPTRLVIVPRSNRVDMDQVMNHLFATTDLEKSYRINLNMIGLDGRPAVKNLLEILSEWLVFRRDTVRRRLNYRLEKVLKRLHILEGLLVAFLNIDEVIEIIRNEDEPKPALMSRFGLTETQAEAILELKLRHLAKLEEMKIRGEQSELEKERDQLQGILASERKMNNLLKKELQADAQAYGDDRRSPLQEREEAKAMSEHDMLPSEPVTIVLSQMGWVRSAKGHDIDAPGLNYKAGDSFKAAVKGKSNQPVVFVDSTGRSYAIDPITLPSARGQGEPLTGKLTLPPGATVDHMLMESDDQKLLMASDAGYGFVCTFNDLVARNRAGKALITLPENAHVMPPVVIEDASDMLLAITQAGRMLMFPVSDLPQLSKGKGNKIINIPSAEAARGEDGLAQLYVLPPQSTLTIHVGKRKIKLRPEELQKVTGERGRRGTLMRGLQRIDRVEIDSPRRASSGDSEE

MBP-ParC^CTD (ParC C-terminal domain with N-terminal MBP fusion) (domain or fragment)
fold decrease in MatP-Cy3B binding to MukB at 10-fold excess of competitor: 3 fold
